The target of assay [1] is T1, recombinant mature dimeric myostatin (human and mouse (mature sequences 100% …, UniProt O08689 268-376)).
T1 construct: also called GDF-8; mature myostatin
T1 sequence: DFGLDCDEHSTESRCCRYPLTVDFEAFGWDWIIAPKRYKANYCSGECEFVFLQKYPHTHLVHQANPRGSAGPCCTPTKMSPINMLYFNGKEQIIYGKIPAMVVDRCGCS
The assay can be described thus: ActRIIb neutralisation ELISA: inhibition of 2 nM biotinylated myostatin binding to coated ActRIIb. On the procedure:
Recombinant soluble ActRIIb (R&D Systems 339-RBB) was coated in wells of an ELISA plate at 1 μg/ml in carbonate buffer overnight at 4° C. Plates were blocked with PBS containing 0.1% tween 20 and 0.1% BSA and washed following standard ELISA protocols. In parallel, 2 nM biotinylated myostatin (in-house reagent, described above) was pre-incubated with a dilution series of the antibodies of Tables 21 and 22 for 30 minutes at 37° C. The biotinylated myostatin:antibody reactions were then added (50 μl/well) to the ActRIIb coated plate for 1 hour at 37° C. Standard wash procedures were followed prior to addition of 50 μl per well of a 1:200 diluted streptavidin-HRP conjugate (R&D Systems. #890803) followed by a further 37° C. incubation for 1 hour. Plates were again washed and assayed at absorbance 490 nm following substrate (R&D Systems, #DY999) and acid stop solution treatment.
On the technique in general: ELISA stands for enzyme-linked immunosorbent assay.

For assay [2], the target named is T1, recombinant mature dimeric myostatin. Briefly: cell-based or functional assay.

B1: H3L4 (antibody, IgG1, V domains shown)
VH: QVQLVQSGAEVKKPGASVKVSCKASGYSFTGYFMHWVRQAPGQGLEWIGNIYPYNGVSNYNQRFKARATLTTDTSTSTAYMELRSLRSDDTAVYYCARRYYYGTGPADWYYDVWGQGTLVTVSS
VL: DIQMTQSPSSLSASVGDRVTITCKASQDINSYLSWFQQKPGKAPKSLIYRANRLVDGVPSKFSGSGSGQDYTLTISSLQPEDFATYYCLQSDEFPLTFGQGTKLEIKR
notes: Humanised IgG1/kappa
For orientation: IC50 means the point on the concentration scale where inhibition reaches its midpoint. For B1, in assay [1], the IC50 turned out to be 1.31 nM.

B2: H6L5 (antibody, IgG1, V domains shown)
VH: QVQLVQSGAEVKKPGASVKISCKASGYSFTGYFMHWVRQAPGQGLEWIGNIYPYNGVSNYNQRFKAKATLTVDKSTSTAYMELRSLRSDDTAVYYCARRYYYGTGPADWYYDVWGQGTLVTVSS
VL: DIQMTQSPSSLSASVGDRVTITCKASQDINSYLSWFQQKPGKAPKTLIYRANRLVDGVPSKFSGSGSGTDYTLTISSLQPEDFATYYCLQSDEFPLTFGQGTKLEIKR
As for B2, the “IC50, myostatin responsive reporter gene neutralisation assay (A204)” value (“IC50 … (A204)” below) in assay [2] was found to be 6 nM.

B3: H5L6 (antibody, IgG1, V domains shown)
VH: QVQLVQSGAEVKKPGASVKVSCKASGYSFTGYFMHWVRQAPGQGLEWIGNIYPYNGVSNYNQRFKARATLTVDKSTSTAYMELRSLRSDDTAVYYCARRYYYGTGPADWYYDVWGQGTLVTVSS
VL: DIQMTQSPSSLSASVGDRVTITCKASQDINSYLSWFQQKPGKAPKTLIYRANRLVDGVPSKFSGSGSGQDYTLTISSLQPEDFATYYCLQSDEFPLTFGQGTKLEIKR
notes: Humanised IgG1/kappa
For B3, the IC50 in assay [1] worked out at 0.166 nM.

B4: H3L5 (antibody, IgG1, V domains shown)
VH: QVQLVQSGAEVKKPGASVKVSCKASGYSFTGYFMHWVRQAPGQGLEWIGNIYPYNGVSNYNQRFKARATLTTDTSTSTAYMELRSLRSDDTAVYYCARRYYYGTGPADWYYDVWGQGTLVTVSS
VL: DIQMTQSPSSLSASVGDRVTITCKASQDINSYLSWFQQKPGKAPKTLIYRANRLVDGVPSKFSGSGSGTDYTLTISSLQPEDFATYYCLQSDEFPLTFGQGTKLEIKR
notes: Humanised IgG1/kappa
For B4, in assay [1], the IC50 was 1.08 nM.

B5: H4L4 (antibody, IgG1, V domains shown)
VH: QVQLVQSGAEVKKPGASVKVSCKASGYSFTGYFMHWVRQAPGQGLEWMGNIYPYNGVSNYNQRFKARVTMTVDKSTSTAYMELRSLRSDDTAVYYCARRYYYGTGPADWYYDVWGQGTLVTVSS
VL: DIQMTQSPSSLSASVGDRVTITCKASQDINSYLSWFQQKPGKAPKSLIYRANRLVDGVPSKFSGSGSGQDYTLTISSLQPEDFATYYCLQSDEFPLTFGQGTKLEIKR
notes: Humanised IgG1/kappa
B5: the “IC50 … (A204)” value in assay [2] is 7.9 nM. The 50% inhibitory concentration (IC50) in assay [1] was determined as 0.395 nM.

B6: H4L5 (antibody, IgG1, V domains shown)
VH: QVQLVQSGAEVKKPGASVKVSCKASGYSFTGYFMHWVRQAPGQGLEWMGNIYPYNGVSNYNQRFKARVTMTVDKSTSTAYMELRSLRSDDTAVYYCARRYYYGTGPADWYYDVWGQGTLVTVSS
VL: DIQMTQSPSSLSASVGDRVTITCKASQDINSYLSWFQQKPGKAPKTLIYRANRLVDGVPSKFSGSGSGTDYTLTISSLQPEDFATYYCLQSDEFPLTFGQGTKLEIKR
notes: Humanised IgG1/kappa
With B6, the “IC50 … (A204)” value in assay [2] came out at 6.5 nM. For the same molecule, the half-maximal inhibitory concentration (IC50) in assay [1] amounted to 0.336 nM.

B7: H7L4 (antibody, IgG1, V domains shown)
VH: QVQLVQSGAEVKKPGASVKVSCKASGYSFTGYFMHWVRQAPGQGLEWMGNIYPYNSVSNYNQRFKARVTMTVDKSTSTAYMELRSLRSDDTAVYYCARRYYYGTGPADWYYDVWGQGTLVTVSS
VL: DIQMTQSPSSLSASVGDRVTITCKASQDINSYLSWFQQKPGKAPKSLIYRANRLVDGVPSKFSGSGSGQDYTLTISSLQPEDFATYYCLQSDEFPLTFGQGTKLEIKR
notes: Humanised IgG1/kappa
B7: the half-maximal inhibitory concentration (IC50) in assay [1] was 0.038 nM.

B8: H5L5 (antibody, IgG1, V domains shown)
VH: QVQLVQSGAEVKKPGASVKVSCKASGYSFTGYFMHWVRQAPGQGLEWIGNIYPYNGVSNYNQRFKARATLTVDKSTSTAYMELRSLRSDDTAVYYCARRYYYGTGPADWYYDVWGQGTLVTVSS
VL: DIQMTQSPSSLSASVGDRVTITCKASQDINSYLSWFQQKPGKAPKTLIYRANRLVDGVPSKFSGSGSGTDYTLTISSLQPEDFATYYCLQSDEFPLTFGQGTKLEIKR
notes: Humanised IgG1/kappa
In the case of B8, in assay [2], the “IC50 … (A204)” value is 6.1 nM. Further, the IC50 in assay [1] is 0.149 nM.

B9: H9L6 (antibody, IgG1, V domains shown)
VH: QVQLVQSGAEVKKPGASVKISCKASGYSFTGYFMHWVRQAPGQGLEWIGNIYPYNSVSNYNQRFKAKATLTVDKSTSTAYMELRSLRSDDTAVYYCARRYYYGTGPADWYYDVWGQGTLVTVSS
VL: DIQMTQSPSSLSASVGDRVTITCKASQDINSYLSWFQQKPGKAPKTLIYRANRLVDGVPSKFSGSGSGQDYTLTISSLQPEDFATYYCLQSDEFPLTFGQGTKLEIKR
notes: Humanised IgG1/kappa
For the molecule B9, the IC50 in assay [1] came out at 0.129 nM.

B10: H7L6 (antibody, IgG1, V domains shown)
VH: QVQLVQSGAEVKKPGASVKVSCKASGYSFTGYFMHWVRQAPGQGLEWMGNIYPYNSVSNYNQRFKARVTMTVDKSTSTAYMELRSLRSDDTAVYYCARRYYYGTGPADWYYDVWGQGTLVTVSS
VL: DIQMTQSPSSLSASVGDRVTITCKASQDINSYLSWFQQKPGKAPKTLIYRANRLVDGVPSKFSGSGSGQDYTLTISSLQPEDFATYYCLQSDEFPLTFGQGTKLEIKR
notes: Humanised IgG1/kappa
With B10, the IC50 in assay [1] worked out at 0.031 nM.

B11: H5L4 (antibody, IgG1, V domains shown)
VH: QVQLVQSGAEVKKPGASVKVSCKASGYSFTGYFMHWVRQAPGQGLEWIGNIYPYNGVSNYNQRFKARATLTVDKSTSTAYMELRSLRSDDTAVYYCARRYYYGTGPADWYYDVWGQGTLVTVSS
VL: DIQMTQSPSSLSASVGDRVTITCKASQDINSYLSWFQQKPGKAPKSLIYRANRLVDGVPSKFSGSGSGQDYTLTISSLQPEDFATYYCLQSDEFPLTFGQGTKLEIKR
notes: Humanised IgG1/kappa
Take B11: in assay [1], the half-inhibitory concentration (IC50) turned out to be 0.211 nM.

B12: H8L6 (antibody, IgG1, V domains shown)
VH: QVQLVQSGAEVKKPGASVKVSCKASGYSFTGYFMHWVRQAPGQGLEWIGNIYPYNSVSNYNQRFKARATLTVDKSTSTAYMELRSLRSDDTAVYYCARRYYYGTGPADWYYDVWGQGTLVTVSS
VL: DIQMTQSPSSLSASVGDRVTITCKASQDINSYLSWFQQKPGKAPKTLIYRANRLVDGVPSKFSGSGSGQDYTLTISSLQPEDFATYYCLQSDEFPLTFGQGTKLEIKR
notes: Humanised IgG1/kappa
For B12, the IC50 in assay [1] was determined as 0.101 nM.

B13: H8L4 (antibody, IgG1, V domains shown)
VH: QVQLVQSGAEVKKPGASVKVSCKASGYSFTGYFMHWVRQAPGQGLEWIGNIYPYNSVSNYNQRFKARATLTVDKSTSTAYMELRSLRSDDTAVYYCARRYYYGTGPADWYYDVWGQGTLVTVSS
VL: DIQMTQSPSSLSASVGDRVTITCKASQDINSYLSWFQQKPGKAPKSLIYRANRLVDGVPSKFSGSGSGQDYTLTISSLQPEDFATYYCLQSDEFPLTFGQGTKLEIKR
notes: Humanised IgG1/kappa
Take B13: in assay [1], the IC50 was determined as 0.079 nM.

B14: H9L4 (antibody, IgG1, V domains shown)
VH: QVQLVQSGAEVKKPGASVKISCKASGYSFTGYFMHWVRQAPGQGLEWIGNIYPYNSVSNYNQRFKAKATLTVDKSTSTAYMELRSLRSDDTAVYYCARRYYYGTGPADWYYDVWGQGTLVTVSS
VL: DIQMTQSPSSLSASVGDRVTITCKASQDINSYLSWFQQKPGKAPKSLIYRANRLVDGVPSKFSGSGSGQDYTLTISSLQPEDFATYYCLQSDEFPLTFGQGTKLEIKR
notes: Humanised IgG1/kappa
In the case of B14, the IC50 in assay [1] worked out at 0.141 nM.

B15: H4L6 (antibody, IgG1, V domains shown)
VH: QVQLVQSGAEVKKPGASVKVSCKASGYSFTGYFMHWVRQAPGQGLEWMGNIYPYNGVSNYNQRFKARVTMTVDKSTSTAYMELRSLRSDDTAVYYCARRYYYGTGPADWYYDVWGQGTLVTVSS
VL: DIQMTQSPSSLSASVGDRVTITCKASQDINSYLSWFQQKPGKAPKTLIYRANRLVDGVPSKFSGSGSGQDYTLTISSLQPEDFATYYCLQSDEFPLTFGQGTKLEIKR
notes: Humanised IgG1/kappa
On to B15, for which the “IC50 … (A204)” value in assay [2] was determined as 6.9 nM. Further, in assay [1], the IC50 stood at 0.273 nM.

B16: H6L6 (antibody, IgG1, V domains shown)
VH: QVQLVQSGAEVKKPGASVKISCKASGYSFTGYFMHWVRQAPGQGLEWIGNIYPYNGVSNYNQRFKAKATLTVDKSTSTAYMELRSLRSDDTAVYYCARRYYYGTGPADWYYDVWGQGTLVTVSS
VL: DIQMTQSPSSLSASVGDRVTITCKASQDINSYLSWFQQKPGKAPKTLIYRANRLVDGVPSKFSGSGSGQDYTLTISSLQPEDFATYYCLQSDEFPLTFGQGTKLEIKR
notes: Humanised IgG1/kappa
Regarding B16, in assay [1], the concentration for half-maximal inhibition (IC50) was found to be 0.32 nM.

B17: H6L4 (antibody, IgG1, V domains shown)
VH: QVQLVQSGAEVKKPGASVKISCKASGYSFTGYFMHWVRQAPGQGLEWIGNIYPYNGVSNYNQRFKAKATLTVDKSTSTAYMELRSLRSDDTAVYYCARRYYYGTGPADWYYDVWGQGTLVTVSS
VL: DIQMTQSPSSLSASVGDRVTITCKASQDINSYLSWFQQKPGKAPKSLIYRANRLVDGVPSKFSGSGSGQDYTLTISSLQPEDFATYYCLQSDEFPLTFGQGTKLEIKR
notes: Humanised IgG1/kappa
Consider B17, for which the half-inhibitory concentration (IC50) in assay [1] was found to be 0.225 nM.

B18: H3L6 (antibody, IgG1, V domains shown)
VH: QVQLVQSGAEVKKPGASVKVSCKASGYSFTGYFMHWVRQAPGQGLEWIGNIYPYNGVSNYNQRFKARATLTTDTSTSTAYMELRSLRSDDTAVYYCARRYYYGTGPADWYYDVWGQGTLVTVSS
VL: DIQMTQSPSSLSASVGDRVTITCKASQDINSYLSWFQQKPGKAPKTLIYRANRLVDGVPSKFSGSGSGQDYTLTISSLQPEDFATYYCLQSDEFPLTFGQGTKLEIKR
notes: Humanised IgG1/kappa
Consider B18, for which, in assay [1], the IC50 turned out to be 3.04 nM.

Values taken from US20130142788A1 (published 2013).
